In patent publication US20020199219A1 (UNIVERSITY OF CALIFORNIA SAN DIEGO, published 2002):

Molecular target: T1, ABH1 polypeptide (Arabidopsis thaliana, UniProt Q9SIU2 1-848)
T1 construct: Tested in a yeast two-hybrid experiment and expressed in yeast cells; also called Arabidopsis CBP80 homolog
T1 sequence: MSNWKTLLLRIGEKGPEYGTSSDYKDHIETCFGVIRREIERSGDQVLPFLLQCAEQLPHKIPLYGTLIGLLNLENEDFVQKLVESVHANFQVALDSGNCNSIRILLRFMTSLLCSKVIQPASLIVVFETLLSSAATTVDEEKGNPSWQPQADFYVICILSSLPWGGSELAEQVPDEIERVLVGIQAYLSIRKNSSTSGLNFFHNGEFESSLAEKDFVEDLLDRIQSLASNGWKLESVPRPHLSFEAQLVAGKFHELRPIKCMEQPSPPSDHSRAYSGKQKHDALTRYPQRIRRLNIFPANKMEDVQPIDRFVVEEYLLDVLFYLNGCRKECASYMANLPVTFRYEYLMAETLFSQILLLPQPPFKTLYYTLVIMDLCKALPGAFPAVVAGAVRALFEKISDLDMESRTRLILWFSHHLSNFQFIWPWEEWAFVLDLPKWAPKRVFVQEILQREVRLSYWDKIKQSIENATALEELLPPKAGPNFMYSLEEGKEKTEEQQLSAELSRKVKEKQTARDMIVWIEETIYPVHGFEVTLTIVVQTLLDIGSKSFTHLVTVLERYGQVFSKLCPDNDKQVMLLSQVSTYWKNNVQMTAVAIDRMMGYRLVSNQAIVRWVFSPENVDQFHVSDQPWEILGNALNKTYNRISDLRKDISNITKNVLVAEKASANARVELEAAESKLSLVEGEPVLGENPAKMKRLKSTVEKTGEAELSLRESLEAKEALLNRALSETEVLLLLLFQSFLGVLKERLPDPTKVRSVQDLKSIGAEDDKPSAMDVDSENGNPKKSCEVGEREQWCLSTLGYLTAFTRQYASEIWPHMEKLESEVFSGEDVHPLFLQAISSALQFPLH
Experiment: yeast two-hybrid

binding result: binds
B1: Arabidopsis CBP20 homolog (AtCBP20) (other, UniProt Q9XFD1 1-257, looked up)
chain: MASLFKEQAKLSAYRDRRFSGTQEEFDEALRASTTVYIGNVSFYTTEEQLYELFSRAGEIKKIIMGLDKNTKTPCGFCFVLFYSREDTEDAVKYISGTILDDRPIRVDFDWGFQEGRQWGRGRSGGQVRDEYRTDYDPARGGYGKLVQKELEAQRQLVDYGTGSLGAYPQAAPTNYGNGRRGGGNYGQGGQNRHGRGDYHRKRQRDDDRYGRDNSRRNTDHESRRDTDSDMRPEKNPRFRESGDSDDDGEDDRKRRS
notes: The limits of the construct and the two-hybrid fusion domains are not described
